Laboratory results: patent US8715970B2, “Enzymatically catalyzed method of preparing mono-acylated polyols” (BASF SE, priority 2009, dated 2014)

Columns and labels:
Type in all cases: biochemical
[1] = Enzyme-catalyzed acylation of 1,4-butanediol with ethyl acetate as acyl donor (Example 2); conditions: for Conversion at 3:1 (monoester:diester) / Conversion at 9:1 (monoester:diester) / Maximum monoester yield: 1,4-butanediol 20 mM in ethyl acetate; for Maximum monoester yield: 29° C.
Protocol: Each diol was dissolved to a concentration of 20 mM together with 5 mM of 3-hexanone in ethyl acetate, ≧99% from Fluka, which was used as acyl donor and solvent. Reactions were started by adding 4 ml reaction solution to 20 mg enzyme carrier beads loaded with either wild-type or T40A mutated CALB. Reactions were run at 29° C. on a HLC rotating thermo block. Aliquots of 50 μl were taken, filtered through wool in a Pasteur pipette and diluted with 50 μl ethyl acetate prior to analysis. The 3-hexanon used as internal standard were present in the reaction solution throughout both reaction and analysis.
5 mM 3-hexanone was used as internal standard in the reaction mixtures together with 20 mM diol. Aliquots were taken during the reaction by taking 50 μl of reaction sample. The samples were filtered though wool together with 50 μl ethyl acetate, thereby any remaining enzyme were removed and the reaction samples were diluted by a factor of 2 prior to analysis.
The reactions catalyzed by the T40A-mutant were rerun with 100 mg enzyme carrier beads for determination of maximum monoester yield. The reactions with 2-methyl-1,3-propanediol and 2-phenyl-1,3-propanediol were rerun at 100 mM concentration of diol and 50 mg enzyme carrier beads, both with CALB wild type and CALB T40A-mutant. This was done in order to determine the enantiomeric excess.
All reactions were analyzed on GC, Hewlett Packard 5890 series II. Two different 25 m×0.32 mm WCOT fused silica columns were used, depending on the different substrates and products that were analyzed. A polar GC-column with CP Chirasil-Dex CB coating was used for the reactions with 1,2-ethanediol and 1,3-propanediol. A non-polar GC-column with CP-SIL 5CB coating was used for the reactions with 1,4-butanediol, 2-methyl-1,3-propanediol and 2-phenyl-1,3-propanediol.
(§1) The response factor for each diol was determined in relationship to 3-hexanone. When all diol and mono-ester had converted to di-ester, the response factor for the di-ester could be determined in relationship to […]. The concentration of mono-ester in each reaction was determined by subtracting the concentration of di-ester from the starting concentration of diol.
A great difference in concentration between acyl donor and diol was accomplished in the reactions by using ethyl acetate as solvent and acyldonor and a diol concentration of 20 mM. Therefore the reactions was considered to irreversible, following the reaction scheme:
[formula] A, B and C corresponds to diol, monoester and diester, respectively. k1 and k2 respectively corresponds to the reaction rates of the acylation of diol and monoester.
The reaction rates are dependent on enzyme concentrations and the kcat/KM towards the substrates. By fitting the concentrations measured over time into the equations and using the enzyme concentration determined by active site titration, the following results were obtained.

[2] = Enzyme-catalyzed acylation of 1,4-butanediol with vinyl butyrate as acyl donor (Example 3); conditions: 1,4-butanediol 10 mM, 200 mM vinyl butyrate in MTBE, 29° C.
Protocol: Each diol was dissolved to a concentration of 10 mM together with 2 mM of decane ≧98% from Fluka and 200 mM vinyl butyrate >99% from Fluka in MTBE 99.5% from Lab-Scan, which was used as acyl donor and solvent. Reactions were started by adding 4 ml reaction solution to 20 mg enzyme carrier beads loaded with either wild-type or T40A mutated CALB. Reactions were run at 29° C. on a HLC rotating thermo block. Aliquots of 50 μl were taken, filtered through wool in a Pasteur pipette and diluted with 50 μl ethyl acetate prior to analysis. The decane used as internal standard were present in the reaction solution throughout both reaction and analysis.
All reactions were analyzed on GC, Hewlett Packard 5890 series II. A 25 m×0.32 mm WCOT fused silica non-polar GC-column with CP-SIL 5CB coating was used for the reactions.
as §1, with “decane.” for “3-hexanone.”

[3] = Active site titration with inhibitor and activity measurement after inhibition (Example 1); conditions: for Share of immobilized enzyme inhibited (activity measurements after inhibition): 50 μM inhibitor in acetonitrile, activity with 1-butanol and vinyl butyrate in MTBE
Protocol: The amount of enzyme loaded on the carriers was confirmed by active site titration using the inhibitor methyl 4-methylumbelliferyl hexylphosphonate. Inhibitor from an ampoule stored in a freezer (−20° C.) was dissolved to a concentration of 50 μM in acetonitrile. The inhibitor was previously synthesized and used for active site titration of CALB as described in Magnusson, A. O., et al., Creating space for large secondary alcohols by rational redesign of Candida antarctica lipase B. Chembiochem, 2005. 6(6): p. 1051-1056 and Rotticci, D., et al., An active-site titration method for lipases. Biochimica Et Biophysica Acta-Molecular and Cell Biology of Lipids, 2000. 1483(1): p. 132-140.
Inhibition reactions were run in three separate vials each containing 50 mg enzyme carrier beads with immobilized CALB wild type and T40A-mutant. The wild type was run in one of the reaction vials, and the other two contained T40A-mutant. The enzymes were incubated in 1 ml of 50 μM inhibitor dissolved in acetonitrile. Each vial were sealed and covered in aluminium foil, to prevent light from damaging the fluorophore, and stored in continuous end over end. Aliquots were taken after 2, 5 and 9 days. […] Analysis was preformed by fluorescence using a Perkin Elmer LS 50 B fluorimeter. […] Fluorescence was also measured in two different control samples. Inhibitor, 50 μM in acetonitrile, was incubated without enzyme for control of background fluorescence from spontaneous hydrolysis of the methyl 4-methylumbelliferyl hexylphosphonate. In addition to this, 50 mg of each enzyme was incubated in acetonitrile without inhibitor for control of any background fluorescence from the immobilized enzyme. The total fluorescence from these samples was subtracted from the fluorescence measured in the inhibition reactions. […]
Remaining activity was measured after inhibition. […] For comparison, the reaction was repeated with the enzyme used for control of background fluorescence. […] The amounts of immobilized enzymes taken from the fluorescence controls used in the reactions were 2.8 mg of the wild type and 9.0 T40A. […]

Molecule	Conversion at 3:1 (monoester:diester) [1] [%]	Conversion at 9:1 (monoester:diester) [1] [%]	Maximum monoester yield [1] [%]	Selectivity diol/monoester ([1]; 1,4-butanediol, ethyl acetate, listed as wild type)	Selectivity diol/monoester ([1]; 1,4-butanediol, ethyl acetate, listed as wild type CALB)	Maximum monoester yields [2] [%]	Share of immobilized enzyme inhibited (activity measurements after inhibition) [3] [%]	Selectivity diol/monoester ([1]; 1,4-butanediol, ethyl acetate)	Selectivity ratio diol/monoester T40A/WT ([1]; 1,4-butanediol, ethyl acetate)	Selectivity diol/monoester ([1]; 1,4-butanediol, ethyl acetate, listed as T40A CALB)	Remaining activity after inhibition ([3]; 100 mM 1-butanol, 1 M vinyl butyrate in MTBE)
WT: non-mutated Candida antarctica lipase B (CALB), SEQ ID NO: 2, immobilized on carrier beads (protein, listed as Candida antarctica, immobilized on carrier beads) LPSGSDPAFSQPKSVLDAGLTCQGASPSSVSKPILLVPGTGTTGPQSFDSNWIPLSAQLGYTPCWISPPPFMLNDTQVNTEYMVNAITTLYAGSGNNKLPVLTWSQGGLVAQWGLTFFPSIRSKVDRLMAFAPDYKGTVLAGPLDALAVSAPSVWQQTTGSALTTALRNAGGLTQIVPTTNLYSATDEIVQPQVSNSPLDSSYLFNGKNVQAQAVCGPLFVIDHAGSLTSQFSYVVGRSALRSTTGQARSADYGITDCNPLPANDLTPEQKVAAAALLAPAAAAIVAGPKQNCEPDLMPYARPFAVGKRTCSGIVTP	<5	<5	25	0.63	0.6	25	83	–	–	–	–
T40A: CALB mutant with single mutation Thr40Ala (SEQ ID NO: 4) (protein, T40 Mutant) LPSGSDPAFSQPKSVLDAGLTCQGASPSSVSKPILLVPGXGTTGPQSFDSNWIPLSAQLGYTPCWISPPPFMLNDTQVNTEYMVNAITTLYAGSGNNKLPVLTWSQGGLVAQWGLTFFPSIRSKVDRLMAFAPDYKGTVLAGPLDALAVSAPSVWQQTTGSALTTALRNAGGLTQIVPTTNLYSATDEIVQPQVSNSPLDSSYLFNGKNVQAQAVCGPLFVIDHAGSLTSQFSYVVGRSALRSTTGQARSADYGITDCNPLPANDLTPEQKVAAAALLAPAAAAIVAGPKQNCEPDLMPYARPFAVGKRTCSGIVTP	64	26	49	–	–	44	21	1.8	2.9	1.9	to low to measure
